Source: patent US20190119406A1 (BISON THERAPEUTICS, published 2019)

Molecular target: T1, Mutant OA chain (long chain, CH1-hinge-CH2-CH3 with P395K, P396K, V397K) (human, UniProt P01857-1 1-330 = IgG part, P395K; P396K; V397K)
T1 construct: domain: CH1-hinge-CH2-CH3; Expressed alone it is expected as a long chain homodimer; also called OA mutation chain; Mutation OA chain
Experiment: three independent co-transfections in HEK293, protein A bead pull-down, SDS-PAGE (FIG. 6)
Method: DNA encoding long chain and short chain were mixed with 1:1 ratio and transfected into HEK293 cells. Three days later, cell culture supernatants were harvested and subjected to magnetic protein A beads pull-down. Proteins bound to magnetic beads were analyzed by SDS-PAGE electrophoresis.
Various positive charged and negative charged polypeptide chain combinations were co-expressed in HEK 293 cells. […] Three days after transfection, cell culture supernatants were harvested by centrifugation and subjected to protein A magnetic beads (Pierce) pull down. Protein products bound on magnetic beads were characterized based on their mobility on SDS-PAGE gel electrophoresis. Collected protein A magnetic beads with bound proteins were re-suspended in 30 μL PBS buffer, mixed with 30 μL of SDS-PAGE loading buffer and boiled for 5 min. Half volume of boiled samples was loaded onto 10% SDS-PAGE to separate long chain homodimer, long chain and short chain heterodimer and short chain homodimer.

B1: Mutant OB chain (short chain, hinge-CH2-CH3 with T394D, P395D, P396D) (other, human, UniProt P01857-1 104-330, looked up, name in EU numbering)
chain: DKTHTCPPCPAPELLGGPSVFLFPPKPKDTLMISRTPEVTCVVVDVSHEDPEVKFNWYVDGVEVHNAKTKPREEQYNSTYRVVSVLTVLHQDWLNGKEYKCKVSNKALPAPIEKTISKAKGQPREPQVYTLPPSRDELTKNQVSLTCLVKGFYPSDIAVEWESNGQPENNYKTDDDVLDSDGSFFLYSKLTVDKSRWQQGNVFSCSVMHEALHNHYTQKSLSLSPGK
notes: domain: hinge-CH2-CH3; also called OB mutation chain; Mutation OB chain
Q: Does B1 bind?
A: Result: binds
